Measurements as given in patent US20180016327A1 (Chugai, published 2018).

How the values were obtained:
human C5 [1] = target: T1, human C5 (human, UniProt P01031 19-673; P01031 678-1676, Beta and alpha chains are disulfide-linked and the protein is glycosylated.); experiment: Biacore T200, 37 C, kd from the dissociation phase only, dissociation at pH 7.4
T1 construct: Either in-house recombinant C5 or plasma derived C5 (CALBIOCHEM) was used; also called recombinant human C5; plasma derived human C5
Method: (§1) Anti-C5 antibodies were captured on an immobilized molecule, and then human C5 was injected. The running buffers used were ACES pH 7.4 and pH 5.8 (20 mM ACES, 150 mM NaCl, 1.2 mM CaCl₂, 0.05% Tween 20). Kinetics parameters at both pH conditions were determined by fitting the sensorgrams with 1:1 binding -RI (without bulk effect adjustment) model using Biacore T200 Evaluation software, version 2.0 (GE Healthcare).
(§2) These variants were examined for the binding against human C5.

cynomolgus monkey C5 [2] = target: T2, cynomolgus monkey C5 (cynomolgus monkey, limits assumed); experiment: as above
T2 construct: also called recombinant cynomolgus monkey C5
T2 chain 1: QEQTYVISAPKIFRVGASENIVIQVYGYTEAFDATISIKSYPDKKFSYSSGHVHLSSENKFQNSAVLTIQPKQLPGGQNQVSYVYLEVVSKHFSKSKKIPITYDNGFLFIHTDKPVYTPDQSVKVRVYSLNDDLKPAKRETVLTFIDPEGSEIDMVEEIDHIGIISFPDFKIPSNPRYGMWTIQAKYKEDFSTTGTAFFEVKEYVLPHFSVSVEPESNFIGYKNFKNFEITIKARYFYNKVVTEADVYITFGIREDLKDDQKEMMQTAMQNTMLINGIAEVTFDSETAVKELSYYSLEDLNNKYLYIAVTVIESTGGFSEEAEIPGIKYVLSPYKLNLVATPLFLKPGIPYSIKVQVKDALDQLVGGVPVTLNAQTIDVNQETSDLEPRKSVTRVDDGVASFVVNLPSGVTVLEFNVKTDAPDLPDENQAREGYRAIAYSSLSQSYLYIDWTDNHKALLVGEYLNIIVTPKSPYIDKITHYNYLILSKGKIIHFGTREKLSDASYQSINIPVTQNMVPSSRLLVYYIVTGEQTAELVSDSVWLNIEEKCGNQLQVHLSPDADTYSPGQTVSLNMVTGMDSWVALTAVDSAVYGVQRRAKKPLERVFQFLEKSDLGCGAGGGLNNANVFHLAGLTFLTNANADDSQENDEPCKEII
T2 chain 2: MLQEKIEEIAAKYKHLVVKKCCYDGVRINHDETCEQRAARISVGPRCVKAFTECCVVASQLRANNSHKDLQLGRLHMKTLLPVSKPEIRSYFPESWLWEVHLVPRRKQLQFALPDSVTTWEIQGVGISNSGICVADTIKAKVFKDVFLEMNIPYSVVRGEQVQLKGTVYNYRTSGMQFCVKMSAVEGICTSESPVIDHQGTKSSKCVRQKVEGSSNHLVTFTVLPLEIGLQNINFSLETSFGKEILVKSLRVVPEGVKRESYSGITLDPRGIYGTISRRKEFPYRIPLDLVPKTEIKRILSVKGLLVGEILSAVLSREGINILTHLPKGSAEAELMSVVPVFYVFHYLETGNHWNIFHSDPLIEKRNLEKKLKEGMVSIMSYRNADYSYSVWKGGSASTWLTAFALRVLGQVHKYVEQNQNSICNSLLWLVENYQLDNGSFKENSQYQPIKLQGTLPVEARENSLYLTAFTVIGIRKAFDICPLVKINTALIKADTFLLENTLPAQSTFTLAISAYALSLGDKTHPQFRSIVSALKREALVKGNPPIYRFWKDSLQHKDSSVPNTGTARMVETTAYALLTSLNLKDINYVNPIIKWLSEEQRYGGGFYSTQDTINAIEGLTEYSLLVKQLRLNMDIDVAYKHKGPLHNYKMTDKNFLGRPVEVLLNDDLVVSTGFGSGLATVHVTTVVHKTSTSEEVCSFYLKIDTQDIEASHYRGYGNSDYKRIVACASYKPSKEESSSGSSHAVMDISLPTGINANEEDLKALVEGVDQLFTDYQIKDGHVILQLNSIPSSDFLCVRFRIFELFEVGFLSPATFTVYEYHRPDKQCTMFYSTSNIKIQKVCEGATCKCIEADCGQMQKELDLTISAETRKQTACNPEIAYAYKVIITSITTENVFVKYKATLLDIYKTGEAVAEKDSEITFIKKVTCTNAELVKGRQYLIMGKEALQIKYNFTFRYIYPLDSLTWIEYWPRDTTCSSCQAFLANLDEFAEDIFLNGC
Method: as §1

human C5 [3] = target: T1, human C5; experiment: Biacore T200, captured antibody, recombinant human C5 injected, pH 7.4, 37 C, 1:1 fit
Method: as §1, §2

cynomolgus monkey C5 [4] = target: T2, cynomolgus monkey C5; experiment: Biacore T200, captured antibody, cynomolgus monkey C5 injected, pH 7.4, 37 C, 1:1 fit
Method: as §1

human C5 [5] = target: T1, human C5; experiment: Biacore T200, 37 C, kd from the dissociation phase only, association at pH 7.4 and dissociation at pH 5.8
Method: as §1, §2

cynomolgus monkey C5 [6] = target: T2, cynomolgus monkey C5; experiment: as above
Method: as §1

B1: optimized 20//18 (bispecific antibody, V domains shown)
VH 1: QVQLQESGPGLVKPSETLSLTCAVSGYSISSGYYWGWIRQPPGKGLEWIGSIYHSGSTYYNKKLKSRVTISVDTSKNQFSLKLSSVTAADTAVYYCARHDPTWYHHGYFDYWGQGTLVTVSS
VH 2: QVQLVQSGAEVKKPGSSVKVSCKASGGTFSSYSISWVRQAPGQGLEWMGGIIPIFGTANYAQKFQGRVTITADESTSTAYMELSSLRSEDTAVYYCARQLYGYYELDIWGQGTLVTVSS
VL: DIQMTQSPSSLSASVGDRVTITCRASQSIHNDLAWYQQKPGKAPKLLIYEASELQSGVPSRFSGSGSGTDFTLTISSLQPEDFATYYCQHYSSYPYTFGQGTKVEIK
notes: Bispecific IgG with the common light chain 20L233
Human C5 [1]
  koff: 0.000104 s⁻¹
Cynomolgus monkey C5 [2]
  koff: 0.000224 s⁻¹
Human C5 [3]
  Kd: 0.268 nM
  koff: 9.72e-05 s⁻¹
  kon: 362000 M⁻¹ s⁻¹
Cynomolgus monkey C5 [4]
  Kd: 0.664 nM
  koff: 0.000236 s⁻¹
  kon: 355000 M⁻¹ s⁻¹
Human C5 [5]
  koff: 0.0594 s⁻¹
Cynomolgus monkey C5 [6]
  koff: 0.107 s⁻¹
